B1: Cytochrome c-551, P00099 (parent)
chain: MKPYALLSLLATGTLLAQGAWAEDPEVLFKNKGCVACHAIDTKMVGPAYKDVAAKFAGQAGAEAELAQRIKNGSQGVWGPIPMPPNAVSDDEAQTLAKWVLSQK

Variants of: B1
Details: Pseudomonas aeruginosa (strain ATCC 15692 / DSM 22644 / CIP 104116 / JCM 14847 / LMG 12228 / 1C / PRS 101 / PAO1); pH 7; 10 °C; Urea; Fluorescence; sodium phosphate 50 mM; reversible: yes; structure 451C; whole UniProt chain shown

Variant: W99F
- ddG of mutation (higher = less stable): 1.2 kcal/mol
- denaturant m value: 1 kcal/mol/M
- denaturant midpoint (higher = more stable): 5.6 M
- unfolding free energy: 5.9 kcal/mol

Variant: E92Q
- ddG of mutation (higher = less stable): 0.9 kcal/mol
- denaturant m value: 1.1 kcal/mol/M
- denaturant midpoint (higher = more stable): 5.7 M
- unfolding free energy: 6.2 kcal/mol

Variant: E92V
- ddG of mutation (higher = less stable): 2 kcal/mol
- denaturant m value: 1.2 kcal/mol/M
- denaturant midpoint (higher = more stable): 4.3 M
- unfolding free energy: 5.1 kcal/mol

Variant: W78F
- ddG of mutation (higher = less stable): 1.9 kcal/mol
- denaturant m value: 1.1 kcal/mol/M
- denaturant midpoint (higher = more stable): 4.6 M
- unfolding free energy: 5.2 kcal/mol

From FireProtDB (doi:10.1006/jmbi.2001.4728)
